The source of these data is patent publication US20150344570A1 (published 2015).

One assay concerns the target T1, FcgRIa (human, UniProt P12314 16-292).
T1 construct: extracellular domain; also called FcγRIa; FcγRI (CD64); not shown: His tag attached to the C terminus
As to the kind of experiment: SPR (Biacore), antibody captured on chip, FcgR extracellular domain as analyte. As to the method:
(§1) Specifically, H240-Kn204 resulting from the introduction of L234Y/K290Y/Y296W into H240-Kn033, H240-Hl211 resulting from the introduction of S239D/A330M/K334V into H240-Hl033, H240-Kn205 resulting from the introduction of L234Y/Y296W/S298C into H240-Kn033, and H240-Hl212 resulting from the introduction of S239D/K334V into H240-Hl033 were produced according to the method of Reference Example 1. H240-Kn204/H240-Hl211/L73-k0 and H240-Kn205/H240-Hl212/L73-k0 were prepared according to the method of Reference Example 1, by combining H240-Kn204 as one of the H chains and L73-k0 as the L chains with H240-Hl211 as the other H chain, and by combining H240-Kn205 as one of the H chains and L73-k0 as the L chains with H240-Hl212 as the other H chain, and then expressing them. The binding of the prepared variants to FcgRIa, FcgRIIaR, FcgRIIaH, FcgRIIb, FcgRIIIaF, and FcgRIIIaV was measured according to the method of Reference Example 8.
(§2) Analysis of interaction between objective antibody and the FcγR was carried out using Biacore T100 (GE Healthcare), Biacore T200, Biacore A100, and Biacore 4000. HBS-EP+ (GE Healthcare) was used as the running buffer, and the measurement temperature was set to 25° C. Chips produced by immobilizing the antigen peptide by the amine coupling method to a Series S sensor Chip CM5 (GE Healthcare), chips produced by allowing preliminarily biotinylated antigen peptides to interact with and immobilize onto a Series S Sensor Chip SA (certified) (GE Healthcare), chips produced by immobilizing Protein L (ACTIGEN, BioVision) to Series S Sencor Chip CM5 (GE Healthcare), or chips produced by immobilizing Protein A/G (Thermo Scientific) to Series S Sencor Chip CM5 (GE Healthcare) were used. Antibodies of interest were captured onto these chips, and allowed to interact to each FcγR diluted with running buffer. To regenerate and repeatedly use the chip, the antibodies captured onto the chip were washed off by reacting 10 mM glycine-HCl, pH 1.5.

Assay [1] has as its target T2, FcgRIIaR (human, UniProt P12318 34-217).
T2 construct: extracellular domain; also called FcγRIIa R; FcgRIIa type R; not shown: His tag attached to the C terminus
T2 sequence (looked up): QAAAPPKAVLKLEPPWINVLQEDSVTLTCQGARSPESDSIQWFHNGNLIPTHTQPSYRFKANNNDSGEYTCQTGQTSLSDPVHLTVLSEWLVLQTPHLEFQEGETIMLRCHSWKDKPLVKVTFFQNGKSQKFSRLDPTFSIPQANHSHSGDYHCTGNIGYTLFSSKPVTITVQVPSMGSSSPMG
The description is as above. As to the method:
as §1, §2

The target of assay [2] is T3, FcgRIIaH (human, UniProt P12318 34-217).
T3 construct: extracellular domain; also called FcγRIIa H; FcgRIIa type H; not shown: His tag attached to the C terminus
T3 sequence (looked up): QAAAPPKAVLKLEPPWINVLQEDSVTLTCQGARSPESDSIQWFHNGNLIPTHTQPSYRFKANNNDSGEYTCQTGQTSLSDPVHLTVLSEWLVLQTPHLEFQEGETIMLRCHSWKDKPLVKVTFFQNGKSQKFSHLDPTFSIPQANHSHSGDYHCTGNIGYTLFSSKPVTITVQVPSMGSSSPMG
Described as above. As to the method: as §1, §2

Assay [3] deals with T4, FcgRIIb (human, UniProt P31994 43-217).
T4 construct: extracellular domain; also called FcγRIIb; 2b; not shown: His tag attached to the C terminus
T4 sequence (looked up): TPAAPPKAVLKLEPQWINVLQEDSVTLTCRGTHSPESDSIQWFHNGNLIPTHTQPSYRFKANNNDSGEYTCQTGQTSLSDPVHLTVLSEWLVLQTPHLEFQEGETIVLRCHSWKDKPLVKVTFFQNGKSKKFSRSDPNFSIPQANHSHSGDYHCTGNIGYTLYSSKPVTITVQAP
The assay is described as above. The protocol:
as §1, §2

For assay [4], the target named is T5, FcgRIIIaF (human, UniProt P08637 17-208).
T5 construct: extracellular domain; also called FcγRIIIa F; 3aF; not shown: His tag attached to the C terminus
Described as above. The protocol:
as §1, §2
T5 sequence (P08637 17-208): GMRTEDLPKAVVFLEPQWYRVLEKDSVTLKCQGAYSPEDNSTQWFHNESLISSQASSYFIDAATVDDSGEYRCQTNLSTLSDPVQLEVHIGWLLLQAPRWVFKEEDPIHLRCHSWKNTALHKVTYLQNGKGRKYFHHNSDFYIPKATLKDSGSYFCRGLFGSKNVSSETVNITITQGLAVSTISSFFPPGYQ

The target in assay [5] is T6, FcgRIIIaV (human, UniProt P08637 17-208).
T6 construct: extracellular domain; also called FcγRIIIa V; 3aV; not shown: His tag attached to the C terminus
The assay is described as above. The protocol: as §1, §2

The target in assay [6] is T7, FcgRIIaR (human, UniProt P12318 34-217).
T7 construct: extracellular domain; also called FcγRIIa R; FcgRIIa type R; not shown: His tag attached to the C terminus
T7 sequence (looked up): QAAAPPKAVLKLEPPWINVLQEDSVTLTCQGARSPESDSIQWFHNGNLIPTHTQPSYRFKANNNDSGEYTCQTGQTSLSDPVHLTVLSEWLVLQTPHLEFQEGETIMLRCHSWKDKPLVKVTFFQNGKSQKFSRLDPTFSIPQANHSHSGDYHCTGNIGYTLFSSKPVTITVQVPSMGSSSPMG
As to the kind of experiment: SPR (Biacore); KD of H240-Kn033/H240-Hl033/L73-k0 divided by KD of this variant. (In general: Surface plasmon resonance follows binding to a sensor surface in real time, without labels.)

In assay [7] the target is T8, FcgRIIaH (human, UniProt P12318 34-217).
T8 construct: extracellular domain; also called FcγRIIa H; FcgRIIa type H; not shown: His tag attached to the C terminus
T8 sequence (looked up): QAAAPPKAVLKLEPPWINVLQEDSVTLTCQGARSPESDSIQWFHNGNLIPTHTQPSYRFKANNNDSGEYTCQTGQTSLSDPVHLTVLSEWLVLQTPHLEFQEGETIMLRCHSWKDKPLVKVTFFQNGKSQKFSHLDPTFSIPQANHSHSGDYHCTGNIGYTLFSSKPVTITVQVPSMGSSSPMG
The assay is described as above.

The target in assay [8] is T9, FcgRIIb (human, UniProt P31994 43-217).
T9 construct: extracellular domain; also called FcγRIIb; 2b; not shown: His tag attached to the C terminus
T9 sequence (looked up): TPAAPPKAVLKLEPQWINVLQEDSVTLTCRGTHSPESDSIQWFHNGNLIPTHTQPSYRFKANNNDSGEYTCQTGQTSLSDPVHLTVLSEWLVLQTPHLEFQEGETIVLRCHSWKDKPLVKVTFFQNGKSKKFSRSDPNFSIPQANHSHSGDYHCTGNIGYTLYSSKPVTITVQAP
Described as above.

In assay [9] the target is T10, FcgRIIIaF (human, UniProt P08637 17-208).
T10 construct: extracellular domain; also called FcγRIIIa F; 3aF; not shown: His tag attached to the C terminus
The description is as above.
T10 sequence (P08637 17-208): as the sequence (P08637 17-208) above

The target in assay [10] is T6, FcgRIIIaV. The assay is described as above.
The next assay deals with T11, Protein A (UniProt P38507 37-327).
T11 construct: Commercial chromatography resin; also called rProtein A Sepharose Fast Flow (GE Healthcare)
As to the kind of experiment: Protein A column chromatography, stepwise pH elution; eluted fractions analysed by cation exchange chromatography (peak area %).

T6 sequence (P08637 17-208 F176V limits assumed): as the sequence (P08637 17-208) above, with F160V counted along it
T1 sequence (P12314 16-292): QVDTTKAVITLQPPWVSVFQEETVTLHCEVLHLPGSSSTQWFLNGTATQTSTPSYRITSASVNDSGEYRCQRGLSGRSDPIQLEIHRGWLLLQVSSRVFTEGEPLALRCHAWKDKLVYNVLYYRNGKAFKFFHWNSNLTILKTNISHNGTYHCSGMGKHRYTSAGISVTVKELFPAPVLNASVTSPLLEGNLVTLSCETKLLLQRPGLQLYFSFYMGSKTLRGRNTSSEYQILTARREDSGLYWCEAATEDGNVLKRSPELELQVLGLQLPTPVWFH

B1: H240-Kn125/H240-Hl076/L73-k0 (antibody, human IgG1, kappa)
heavy 1: QDQLVQSGAEVKKPGASVKVSCKASGFNIKDTYIQWVRQAPGQGLEWMGRIDPLRKQTKYREKFEGRVTITADTSTNTAYMELSSLRSEDTAVYYCVRSGREFDYWGQGTLVTVSSASTKGPSVFPLAPSSKSTSGGTAALGCLVKDYFPEPVTVSWNSGALTSGVHTFPAVLQSSGLYSLSSVVTVPSSSLGTQTYICNVNHKPSNTKVDKKVEPKSCDKTHTCPPCPAPEYQWGPMVFLFPPKPKDTLMISRTPEVTCVVVDVSDEEPEVKFNWYVDGVEVHNAKTKPREEQYNATYRVVSVLTVLHQDWLNGKEYKCKVSNKALPAPIEKTISKAKGQPREPQVCTLPPSRDELTKNQVSLWCLVKGFYPSDIAVEWESNGQPENNYKTTPPVLDSDGSFFLYSKLTVDKSRWQQGNVFSCSVMHEALHNHYTQKSLSLSP
heavy 2: QDQLVQSGAEVKKPGASVKVSCKASGFNIKDTYIQWVRQAPGQGLEWMGRIDPLRKQTKYREKFEGRVTITADTSTNTAYMELSSLRSEDTAVYYCVRSGREFDYWGQGTLVTVSSASTKGPSVFPLAPSSKSTSGGTAALGCLVKDYFPEPVTVSWNSGALTSGVHTFPAVLQSSGLYSLSSVVTVPSSSLGTQTYICNVNHKPSNTKVDKKVEPKSCDKTHTCPPCPAPELLGGPSVFLFPPKPKDTLMISRTPEVTCVVVDVSHEEPEVKFNWYVDGVEVHNAKTKPREEQYNSTYRVVSVLTVLHQDWLNGKEYKCKVSNDALPMPIEETISKAKGQPREPQVYTLPPSRCELTKNQVSLSCAVKGFYPSDIAVEWESNGQPENNYKTTPPVLDSDGSFFLVSKLTVDKSRWQQGNVFSCSVMHEALHNHYTQKSLSLSP
light: DIQMTQSPSSLSASVGDRVTITCRASQDIHKYIAWYQQKPGQAPRLLIQYTSTLQPGVPSRFSGSGSGTDYTFTISSLQPEDIATYYCLQYEQLRTFGGGTKVEIKRTVAAPSVFIFPPSDEQLKSGTASVVCLLNNFYPREAKVQWKVDNALQSGNSQESVTEQDSKDSTYSLSSTLTLSKADYEKHKVYACEVTHQGLSSPVTKSFNRGEC
What is called Kd is the concentration at which binding is half-saturated. High values mean weaker binding, low ones tighter binding. As to B1, the Kd with FcgRIa stood at 0.066 nM; with FcgRIIaR [1] it was 420 nM; with FcgRIIaH [2], 140 nM; with FcgRIIb [3], 3900 nM; in the assay with FcgRIIIaF [4], 1.3 nM.

B2: H240-Kn125/H240-Hl076/L73-k0 (antibody, human IgG1, kappa)
heavy 1: QDQLVQSGAEVKKPGASVKVSCKASGFNIKDTYIQWVRQAPGQGLEWMGRIDPLRKQTKYREKFEGRVTITADTSTNTAYMELSSLRSEDTAVYYCVRSGREFDYWGQGTLVTVSSASTKGPSVFPLAPSSKSTSGGTAALGCLVKDYFPEPVTVSWNSGALTSGVHTFPAVLQSSGLYSLSSVVTVPSSSLGTQTYICNVNHKPSNTKVDKKVEPKSCDKTHTCPPCPAPEYQWGPMVFLFPPKPKDTLMISRTPEVTCVVVDVSDEEPEVKFNWYVDGVEVHNAKTKPREEQYNATYRVVSVLTVLHQDWLNGKEYKCKVSNKALPAPIEKTISKAKGQPREPQVCTLPPSRDELTKNQVSLWCLVKGFYPSDIAVEWESNGQPENNYKTTPPVLDSDGSFFLYSKLTVDKSRWQQGNVFSCSVMHEALHNHYTQKSLSLSP
heavy 2: QDQLVQSGAEVKKPGASVKVSCKASGFNIKDTYIQWVRQAPGQGLEWMGRIDPLRKQTKYREKFEGRVTITADTSTNTAYMELSSLRSEDTAVYYCVRSGREFDYWGQGTLVTVSSASTKGPSVFPLAPSSKSTSGGTAALGCLVKDYFPEPVTVSWNSGALTSGVHTFPAVLQSSGLYSLSSVVTVPSSSLGTQTYICNVNHKPSNTKVDKKVEPKSCDKTHTCPPCPAPELLGGPSVFLFPPKPKDTLMISRTPEVTCVVVDVSHEEPEVKFNWYVDGVEVHNAKTKPREEQYNSTYRVVSVLTVLHQDWLNGKEYKCKVSNDALPMPIEETISKAKGQPREPQVYTLPPSRCELTKNQVSLSCAVKGFYPSDIAVEWESNGQPENNYKTTPPVLDSDGSFFLVSKLTVDKSRWQQGNVFSCSVMHEALHNHYTQKSLSLSP
light: DIQMTQSPSSLSASVGDRVTITCRASQDIHKYIAWYQQKPGQAPRLLIQYTSTLQPGVPSRFSGSGSGTDYTFTISSLQPEDIATYYCLQYEQLRTFGGGTKVEIKRTVAAPSVFIFPPSDEQLKSGTASVVCLLNNFYPREAKVQWKVDNALQSGNSQESVTEQDSKDSTYSLSSTLTLSKADYEKHKVYACEVTHQGLSSPVTKSFNRGEC
notes: Anti-epiregulin heterodimerized IgG1, knobs-into-holes
On to B2, for which the affinity with FcgRIIIaV [5], expressed as Kd, was 0.26 nM. In the assay with FcgRIIaR [6], the “fold 2aR” value was found to be 1.8 fold. In the assay with FcgRIIaH [7], the “fold 2aH” value came out at 3.7 fold. The “fold 2b” value in the assay with FcgRIIb [8] stood at 0.8 fold. The “fold 3aF” value with FcgRIIIaF [9] came to 223 fold. The “fold 3aV” value with FcgRIIIaV [10] was 185 fold.

B3: J142-z73/L180-k (antibody, human IgG4 S228P, kappa)
heavy: QVQLVQSGSELKKPGASVKVSCKASGYTFTDNNMDWVRQAPGQGLEWMGDINTRSGGSIYNEEFQDRVTMTIDKSTGTAYMELSSLRSEDTAVYYCARRRSYGYYHDEWGEGTLVTVSSASTKGPSVFPLAPCSRSTSESTAALGCLVKDYFPEPVTVSWNSGALTSGVHTFPAVLQSSGLYSLSSVVTVPSSSLGTKTYTCNVDHKPSNTKVDKRVESKYGPPCPPCPAPEFLGGPSVFLFPPKPKDTLMISRTPEVTCVVVDVSQEDPEVQFNWYVDGVEVHNAKTKPREEQFNSTYRVVSVLTVLHQDWLNGKEYKCKVSNKGLPSSIEKTISKAKGQPREPQVYTLPPSQEEMTKNQVSLTCLVKGFYPSDIAVEWESNGQPENNYKTTPPVLDSDGSFFLYSRLTVDKSRWQEGNVFSCSVMHEALHNRFTQESLSLSP
light: DIQMTQSPSSLSASVGDRVTITCKASRNIERNLAWYQQKPGQAPELLIYSASRKESGVPDRFSGSRYGTDFTLTISSLQPEDLATYYCQQYYSPPLTFGGGTKVEIKRTVAAPSVFIFPPSDEQLKSGTASVVCLLNNFYPREAKVQWKVDNALQSGNSQESVTEQDSKDSTYSLSSTLTLSKADYEKHKVYACEVTHQGLSSPVTKSFNRGEC
notes: also called homomeric antibody against FX
As for B3, the binding result in the assay with Protein A is given as “no binding”.
